For assay [1], the target named is PSG (PSD-95), PDZ3-SH3-GK supramodule, wild type.
The target is the same in assay [2]. Put plainly: FP.

Where two headings read alike, the source gives them in different places. Ends that are not written are not given here. * marks the point of attachment. FITC = O=C1OC2(c3ccc(O)cc3Oc3cc(O)ccc32)c2ccc(NC(=S)*)cc21; Dansyl = CN(C)c1cccc2c(S(=O)(=O)*)cccc12

A word on the Kd: it is the free concentration of one partner at which half of the binding sites on the other are occupied at equilibrium, for simple one-to-one binding. Higher therefore signals weaker binding.

In assay [1], Dansyl-GKKVLDTKNYKQTSV [15 AA CRIPT, dansylated (DNS-GKKVLDTKNYKQTSV)] came in with an equilibrium dissociation constant (Kd) of 490 nM. Dansyl-AQRGSFPPWVQQTRV [15 AA SynGap (DNS-AQRGSFPPWVQQTRV)] gave a dissociation constant Kd in assay [1] of 550 nM. Dansyl-RDGCHRLPKIKETTV [15 AA FRPD4, dansylated (DNS-RDGCHRLPKIKETTV)]: in assay [1], the affinity, expressed as Kd, was 760 nM. This Kd and that of the molecule before are within 1.5-fold of each other. Dansyl-KTESKKHGRWKLWFL [15 AA INSY2, dansylated (DNS-KTESKKHGRWKLWFL)] yielded an equilibrium dissociation constant (Kd) in assay [1] of 161000 nM. Molecule {FITC}-PLVGQDIIDLQTEV [FITC-14 AA ADGRB1] came in with a Kd in assay [2] of 60000 nM.

Source of the values: paper PMC9490041 (2022).
